Assay results as given in US20170305994A1 (Novo Nordisk, published 2017).
Residue numbers refer to the chain shown, from its start. Names may count otherwise.

Assays:
Test in all cases: cell-based or functional assay
[1] = biological target: T1, human DR3 (full length, on cells) (human, UniProt Q93038 25-417)
T1 sequence: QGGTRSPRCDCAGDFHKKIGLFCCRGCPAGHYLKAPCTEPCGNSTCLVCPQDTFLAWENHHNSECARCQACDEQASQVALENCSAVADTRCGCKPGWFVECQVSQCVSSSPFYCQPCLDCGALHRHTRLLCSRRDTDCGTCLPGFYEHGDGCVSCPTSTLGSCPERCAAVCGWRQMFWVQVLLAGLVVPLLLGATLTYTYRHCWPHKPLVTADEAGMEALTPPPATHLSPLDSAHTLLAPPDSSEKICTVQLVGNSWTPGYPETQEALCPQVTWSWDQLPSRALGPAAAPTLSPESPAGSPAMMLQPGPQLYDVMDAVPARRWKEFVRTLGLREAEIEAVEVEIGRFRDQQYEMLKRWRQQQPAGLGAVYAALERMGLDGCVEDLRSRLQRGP

[2] = biological target: T1, human DR3 (full length, on cells); remark: listed apart in the source
[3] = biological target: T2, cynomolgus DR3 (on HEK293 reporter cells) (cynomolgus, UniProt A0A2K5WJ09 98-464)
T2 sequence: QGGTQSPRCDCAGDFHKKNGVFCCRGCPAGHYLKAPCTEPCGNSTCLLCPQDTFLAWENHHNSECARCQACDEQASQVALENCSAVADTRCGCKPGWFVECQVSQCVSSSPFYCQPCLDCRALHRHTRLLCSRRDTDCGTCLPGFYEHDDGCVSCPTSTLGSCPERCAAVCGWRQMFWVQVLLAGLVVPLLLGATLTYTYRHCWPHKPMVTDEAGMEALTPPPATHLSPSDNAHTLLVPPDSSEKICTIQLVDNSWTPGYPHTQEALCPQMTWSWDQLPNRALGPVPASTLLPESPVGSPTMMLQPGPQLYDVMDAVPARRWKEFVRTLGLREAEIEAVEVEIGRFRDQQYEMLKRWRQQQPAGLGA

[4] = biological target: T3, marmoset DR3 (transiently expressed on HEK293 cells) (marmoset, UniProt U3ENN5 27-418)
T3 sequence: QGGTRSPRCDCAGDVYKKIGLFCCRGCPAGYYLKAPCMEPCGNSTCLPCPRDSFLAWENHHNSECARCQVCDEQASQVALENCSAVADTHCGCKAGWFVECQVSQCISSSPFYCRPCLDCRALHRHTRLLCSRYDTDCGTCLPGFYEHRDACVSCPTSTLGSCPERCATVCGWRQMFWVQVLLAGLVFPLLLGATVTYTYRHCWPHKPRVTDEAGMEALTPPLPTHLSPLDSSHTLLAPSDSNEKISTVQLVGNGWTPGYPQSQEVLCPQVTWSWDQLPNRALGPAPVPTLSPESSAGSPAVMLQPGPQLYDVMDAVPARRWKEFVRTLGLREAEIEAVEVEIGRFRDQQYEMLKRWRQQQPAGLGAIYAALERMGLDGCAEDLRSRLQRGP

[5] = biological target: T1, human DR3 (full length, on cells); remark: listed apart in the source
[6] = biological target: T4, human DR3 I43N (human, UniProt Q93038 25-417)
T4 sequence: T1 sequence with I19N

[7] = biological target: T5, human DR3 I43N/L45V (human, UniProt Q93038 25-417)
T5 chain: T1 sequence with I19N, L21V

- IC50 at 40 ng/ml TL1A, I5 reporter cells [1]: 320 pM
- IC50 at 40 ng/ml TL1A, transient reporter HEK293 [2]: 355 pM
- IC50 at 40 ng/ml TL1A, transient reporter HEK293 [3]: 73000 pM
- IC50 at 40 ng/ml TL1A, transient reporter HEK293 [4]: 549 pM
- IC50 of Fab upon stimulation by TL1A, transient reporter [5]: 645 pM
- IC50 of Fab upon stimulation by TL1A, transient reporter [6]: 68000 pM
- IC50 of Fab upon stimulation by TL1A, transient reporter [7]: 149000 pM
B1: 0228 (humanized Fab of 27F44, IgG4, hz0072VH S49A / hz0072VL) (Fab, V domains shown)
VH: EVQLVESGGGLVQPGGSLRLSCAASGFTFSNYDMSWVRQATGKGLEWVAAFSSDGYTFYPGSVKGRFTISRENAKNSLYLQMNSLRAGDTAVYYCARHADYANYPVMDYWGQGTLVTVSS
VL: DIQMTQSPSSLSASVGDRVTITCRASKSVSTSGYSYMHWYQQKPGKAPKLLIYLASNLESGVPSRFSGSGSGTDFTLTISSLQPEDFATYYCQHSRELPLTFGGGTKVEIKR
notes: IgG4-Cys, hz (humanized IgG4 Fab with the hinge cysteine kept)
